Consider two molecules from patent publication US20150355184A1 (Merck Sharp & Dohme, published 2015).

The target in one experiment is T1, mouse PD-L1 (mouse, UniProt Q9EP73 19-238, limits assumed).
T1 construct: Tested in 'a similar ELISA experiment'
Kind of experiment: ELISA similar to the cell-based ELISA.

For experiment [1], the target named is T2, human PD-L1 expressed on cells (hPD-L1-CHOK1 / human PD-L1-CHO transfectants, LOX melanoma cells, human … (human, UniProt Q9NZQ7 19-290)).
T2 construct: Cell surface PD-L1 on transfected CHO cells, on LOX melanoma cells or in FFPE tissue and cell pellets; also called human Programmed Death Ligand 1; mature PD-L1
Kind of experiment: flow cytometry on hPD-L1 positive LOX melanoma cells, 1 microgram/ml antibody, against isotype control mouse antibody. An excerpt: Another experiment assessed the binding specificity of 20C3 and 22C3 for hPD-L1-expressing cells. HT144 cells which were known to be negative for expression of hPD-L1 by mRNA analysis (qPCR) and LOX melanoma cells known to express high levels of hPD-L1 mRNA (qPCR) were stained with 1 microgram/ml of purified mouse IgG from seven hybridomas generated in the experiments described in Example 1 above. An irrelevant isotype control mouse antibody was also used at the identical concentration. A fluorescent-labeled anti-mouse secondary antibody was used to detect the primary mouse antibodies. After staining and repeated washing, the cells were analyzed by flow cytometry, with median fluorescent intensities calculated for the population (>10,000 events collected).
20C3 and 22C3 as well as other hPD-L1 antibodies were employed as flow cytometric reagents to detect cell surface hPD-L1. The significant right shift of both the 20C3 and 22C3 histogram curves (FIG. 6A) as compared to the isotype control antibody curve reflects selective detection of hPD-L1 on the hPD-L1-positive LOX melanoma cell line.

T2 sequence (Q9NZQ7 19-290 limits assumed): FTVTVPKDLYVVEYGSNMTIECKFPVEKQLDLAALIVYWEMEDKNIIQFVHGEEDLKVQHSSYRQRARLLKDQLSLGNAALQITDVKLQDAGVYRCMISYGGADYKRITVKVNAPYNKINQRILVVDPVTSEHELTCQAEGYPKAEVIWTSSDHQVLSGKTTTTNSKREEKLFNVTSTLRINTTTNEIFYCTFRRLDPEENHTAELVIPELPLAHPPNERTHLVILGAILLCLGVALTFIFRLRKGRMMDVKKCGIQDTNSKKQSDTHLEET
T1 sequence (Q9EP73 19-238 limits assumed): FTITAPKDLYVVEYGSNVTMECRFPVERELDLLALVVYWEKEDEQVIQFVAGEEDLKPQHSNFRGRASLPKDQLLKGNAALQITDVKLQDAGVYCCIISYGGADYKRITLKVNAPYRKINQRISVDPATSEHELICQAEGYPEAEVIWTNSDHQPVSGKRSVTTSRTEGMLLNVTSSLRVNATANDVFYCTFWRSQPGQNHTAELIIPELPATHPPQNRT

B1: Monoclonal Antibody MEB037.20C3 (antibody, mouse IgG1, V domains shown)
VH: QVQVQQSGAELAEPGASVKMSCKASGYIFTSYWMHWLKQRPGQGLEWIGYINPSSDYNEYSEKFMDKATLTADKASTTAYMQLISLTSEDSAVYYCARSGWLVHGDYYFDYWGQGTTLTVSS
VL: DIVMSQSPSSLAVSAGEKVTMSCKSSQSLLNSRTRKNYLAWYQQKPGQSPKLLIYWASTRESGVPDRFTGSGSGTDFTLTISSVQAEDLAVYYCQQSYDVVTFGAGTKLELK
notes: Mouse IgG1 from hybridoma; also called antibody 20C3; antibody produced by hybridoma subclone MEB037.20C3.116
B1: the binding result with mouse PD-L1 is recorded as “no binding”. Further, the “fold increase in MFI compared to isotype” value in experiment [1] is not below 10 fold.

B2: Monoclonal Antibody MEB037.22C3 (antibody, V domains shown)
VH: QVHLQQSGAELAKPGASVKMSCKASGYTFTSYWIHWIKQRPGQGLEWIGYINPSSGYHEYNQKFIDKATLTADRSSSTAYMHLTSLTSEDSAVYYCARSGWLIHGDYYFDFWGQGTTLTVSS
VL: DIVMSQSPSSLAVSAGEKVTMTCKSSQSLLHTSTRKNYLAWYQQKPGQSPKLLIYWASTRESGVPDRFTGSGSGTDFTLTISSVQAEDLAVYYCKQSYDVVTFGAGTKLELK
modifications: N-terminal residue of the mature heavy chain is either glutamine or pyro-glutamate (pE)
notes: Mouse IgG1 from hybridoma (allotype S414R of a mouse IgG1); also called antibody 22C3; antibody produced by hybridoma subclone MEB037.22C3.138
Consider B2, for which the binding result with mouse PD-L1 was “no binding”. Moreover, the “fold increase in MFI compared to isotype” value in experiment [1] was not below 10 fold.
